Experimental findings from patent publication US11338018B2, “Adrenocorticotropic hormone-based pharmaceutical formulations and methods for fabricating and using thereof” (Harrow IP, LLC, priority 2016, dated 2022) are described below.

The nature of the data set: Comparative potency (USP corticotropin units) to assess formulation shelf stability. Set-up: key to Potency: “Failed” refers to the potency after the testing being outside of the USP Corticotropin Units 80-125% range required by the U.S. Pharmacopeia.; “Passed” refers to the potency after the testing being within the 80-125% range required by the U.S. Pharmacopeia. In kind it is physicochemical. How it is done: The term “potency” is defined in accordance with the U.S. Pharmacopeia (USP) and refers to the quantity of an active pharmaceutical component in the composition. In accordance with the requirements of the USP, the potency that is required of the corticotropin compositions described below is not less than 80.0 percent and not more than 125.0 percent of the potency stated on the label in USP corticotropin units.
Several compositions were prepared according to the methods illustrated in Examples 1-3. Table 1 provides a comparison of their respective potencies for showing shelf stability. The terms “recombinant porcine” and “recombinant human” refer to synthetic ACTH having the same amino acid sequence as the naturally occurring polypeptide derived from pigs and humans, respectively. […] Unexpectedly, it was observed that addition of L-Methionine in combination with Mannitol improved the shelf stability of Corticotropin Active Pharmaceutical Ingredient. FIGS. 1-4 show potencies of various exemplary compositions from Day 0 to Day 365.

Turning to “SYSMEHFRWGKPVGKKRRPVKVYPNGAEDELAEAFPLEF (Sythetic construct) [Synthetic porcine]”, the Potency entry is on record as “Failed^1 after” (Cysteine, 1 mg/mL, Mannitol None, pH 4.5-6.5, after 30 days); “Failed after” (Cysteine, 2 mg/mL, Mannitol 50 mg/mL, pH 4.0-6.0, after 10 days, both accelerated (room temperature) and refrigerated conditions); “Failed after” (Cysteine, 2 mg/mL, Mannitol 50 mg/mL, pH 4.5-6.6, after 30 days); “Failed after” (Methionine, 2 mg/mL, Mannitol 50 mg/mL, pH 4.0-6.0, after 10 days, both accelerated (room temperature) and refrigerated conditions); “Passed, (“Passed” refers to the potency after the testing being within the 80-125% range required by the U.S. Pharmacopeia.)” (Methionine, 3 mg/mL + POLOXAMER 188, 3 mg/mL, Mannitol 50 mg/mL, pH 5.0-6.5, stable after 360 days); “Passed, (“Passed” refers to the potency after the testing being within the 80-125% range required by the U.S. Pharmacopeia.)” (Methionine, 3 mg/mL, Mannitol 50 mg/mL, pH 4.0-6.0, stable after 365 days).

With “SYSMEHFRWGKPVGKKRRPVKVYPNGAEDESAEAFPLEF [Recombinant human]”, the Potency result (Cysteine, 2 mg/mL, Mannitol 50 mg/mL, pH 4.5-6.5, after 60 days) is recorded as “Failed after” and the Potency entry (Methionine, 2 mg/mL, Mannitol 50 mg/mL, pH 4.5-6.5, stable after 180 days) is listed as “Passed^4, (“Passed” refers to the potency after the testing being within the 80-125% range required by the U.S. Pharmacopeia.)”. Besides, the “label amount remaining intact” value (Cysteine, 2 mg/mL, Mannitol 50 mg/mL, pH 4.5-6.5, day 90) is given as “^3Followed by even more substantial failure by day 90 (when only about 16.9% of the label amount remaining intact)”.
